Reference: patent publication US20250320312A1 (OXITOPE PHARMA B V, published 2025)

T1: Peptide 8: Biotin-AEAAAKEAAAKEAAAKEAAAKAAA-Tyr-acid (N-terminal biotin; C-terminal acid; no PC)
T1 construct: control peptide without PC
T1 peptide: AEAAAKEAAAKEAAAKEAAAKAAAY

T2: Peptide 4: Biotin-AGGGGSGGGGSGGGGSAAA-Tyr-acid (N-terminal biotin; C-terminal acid; no PC)
T2 construct: control peptide without PC
T2 peptide: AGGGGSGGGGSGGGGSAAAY


Tests used:
Test in all cases: scFv ELISA
[1] = target: T1, Peptide 8: …
Procedure, shortened: (§1)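 Bound scFv was read as OD450 after HRP–anti-V5 detection, TMB development and HCl stop. PPE with BSA was incubated 1 h at RT on BSA-blocked wells coated overnight at 4° C. with peptide, or on streptavidin wells loaded 1 h with biotinylated PC-peptides at 1 μg/mL.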

[2] = target: T2, Peptide 4: …
Procedure, shortened: as §1

[3] = target: Peptide 1: Biotin-…-[Tyr(PC)]-acid
[4] = target: Peptide 5: Biotin-…-[Tyr(PC)]-acid
BSA = BSA (UniProt P02769)
BSA, sequence (P02769 25-607 limits assumed): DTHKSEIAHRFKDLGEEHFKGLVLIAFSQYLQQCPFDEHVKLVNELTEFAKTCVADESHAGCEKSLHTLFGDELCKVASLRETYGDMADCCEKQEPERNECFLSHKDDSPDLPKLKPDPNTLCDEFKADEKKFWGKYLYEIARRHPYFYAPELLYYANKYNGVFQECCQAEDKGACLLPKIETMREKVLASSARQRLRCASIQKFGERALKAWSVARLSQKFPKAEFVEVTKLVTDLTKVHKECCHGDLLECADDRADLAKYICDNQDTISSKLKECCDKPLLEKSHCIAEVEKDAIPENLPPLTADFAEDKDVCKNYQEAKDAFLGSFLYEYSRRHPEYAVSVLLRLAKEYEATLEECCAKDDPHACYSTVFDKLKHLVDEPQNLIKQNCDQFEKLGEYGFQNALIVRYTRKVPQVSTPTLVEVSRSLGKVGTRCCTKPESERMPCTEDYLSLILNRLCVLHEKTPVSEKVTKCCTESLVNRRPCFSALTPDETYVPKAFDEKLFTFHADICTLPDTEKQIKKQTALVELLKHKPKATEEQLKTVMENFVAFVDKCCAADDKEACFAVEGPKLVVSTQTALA

Binder	OD450 [1] [OD450]	OD450 [2] [OD450]	OD450 [3] [OD450]	OD450 [4] [OD450]	OD450 (BSA) [OD450]
PcOxP_DB01_D01 (scFv, V domains shown, scFv in periplasmic extract) VH: EVQLLESGGGLVQPGGSLRLSCAASGFTFSSYYMEWVRQAPGKGLEWVAASRNKANDYTTEYADSVKGRFTISRDNSKNTLYLQMNSLRAEDTAVYYCARDYYGSSYWYFDVWGQGTLVTVSS VL: DIVMTQSPDSLAVSLGERATINCTASESLYSPKHKVHYLAWYQQKPGQPPKLLIYGASNRYIGVPDRFSGSGSGTDFTLTISSLQAEDVAVYYCAQFYIYPLTFGGGTKVEIK	0.04	0.05	0.85	1.12	0.06
PcOxP_DB01_D04 (scFv, V domains shown, scFv in periplasmic extract) VH: EVQLLESGGGLVQPGGSLRLSCAASGFTFSDFYMEWVRQAPGKGLEWVAASRNKANDYTTEYADSVKGRFTISRDNSKNTLYLQMNSLRAEDTAVYYCARDYYGSSYWYFDVWGQGTLVTVSS VL: DIVMTQSPDSLAVSLGERATINCTASESLWSSKHKVHYLAWYQQKPGQPPKLLIYGASNRYIGVPDRFSGSGSGTDFTLTISSLQAEDVAVYYCAQFYSYPLTFGGGTKVEIK	0.06	0.08	0.45	0.87	0.07
PcOxP_DB01_D10 (scFv, V domains shown, scFv in periplasmic extract) VH: EVQLLESGGGLVQPGGSLRLSCAASGFTDSDFYMEWVRQAPGKGLEWVAASRNKANDYTTEYADSVKGRFTISRDNSKNTLYLQMNSLRAEDTAVYYCARDYYGSSYWYFDVWGQGTLVTVSS VL: DIVMTQSPDSLAVSLGERATINCTASESLYSSKHKVHYLAWYQQKPGQPPKLLIYGASNRYIGVPDRFSGSGSGTDFTLTISSLQAEDVAVYYCAQFYSYPLTFGGGTKVEIK	0.04	0.05	0.15	0.44	0.06

Next, values leading:

OD450 [1] [OD450]	OD450 [2] [OD450]	OD450 [3] [OD450]	OD450 [4] [OD450]	OD450 (BSA) [OD450]	Binder
0.05	0.06	1.37	2.09	0.08	PcOxP_DB01_D11 (scFv, V domains shown, scFv in periplasmic extract) VH: EVQLLESGGGLVQPGGSLRLSCAASGFTFSSYYMEWVRQAPGKGLEWVAASRNKANDYTTEYADSVKGRFTISRDNSKNTLYLQMNSLRAEDTAVYYCARDYYGSSYWYNDVWGQGTLVTVSS VL: DIVMTQSPDSLAVSLGERATINCTASESLYSSKWKVHYLAWYQQKPGQPPKLLIYGASNRYIGVPDRFSGSGSGTDFTLTISSLQAEDVAVYYCAQFYSYPLTFGGGTKVEIK
0.04	0.04	0.14	0.6	0.05	PcOxP_DB01_D07 (scFv, V domains shown, scFv in periplasmic extract) VH: EVQLLESGGGLVQPGGSLRLSCAASGFTFSDYYMEWVRQAPGKGLEWVAASRNKANDYTTEYADSVKGRFTISRDNSKNTLYLQMNSLRAEDTAVYYCARDYYGDSYWYFDVWGQGTLVTVSS VL: DIVMTQSPDSLAVSLGERATINCKASQSVLSSKNNVNYLAWYQQKPGQPPKLLIYGASNRYSGVPDRFSGSGSGTDFTLTISSLQAEDVAVYYCAQFYSYPLTFGGGTKVEIK
0.04	0.04	0.41	0.69	0.06	PcOxP_DB01_D06 (scFv, V domains shown, scFv in periplasmic extract) VH: EVQLLESGGGLVQPGGSLRLSCAASGFTFSDFYMEWVRQAPGKGLEWVAASRNKANDYTTEYADSVKGRFTISRDNSKNTLYLQMNSLRAEDTAVYYCARDYYGSSYWYFDSWGQGTLVTVSS VL: DIVMTQSPDSLAVSLGERATINCTASESLYSSKHKVHYLAWYQQKPGQPPKLLIYGASNRYIGVPDRFSGSGSGTDFTLTISSLQAEDVAVYYCAQFYIYPLTFGGGTKVEIK
0.05	0.05	0.85	1.48	0.06	PcOxP_DB01_D12 (scFv, V domains shown, scFv in periplasmic extract) VH: EVQLLESGGGLVQPGGSLRLSCAASGFTFSDYYMEWVRQAPGKGLEWVAASRNKYNDYTTEYADSVKGRFTISRDNSKNTLYLQMNSLRAEDTAVYYCARDYYGSSYWYFDVWGQGTLVTVSS VL: DIVMTQSPDSLAVSLGERATINCTASESLYSSKHKVHYLAWYQQKPGQPPKLLIYGASNRYIGVPDRFSGSGSGTDFTLTISSLQAEDVAVYYCAQFYSYPLTFGGGTKVEIK
